The values below come from article PMC8930418.

This data set deals with dSpCas9 (catalytically inert dCas9) (UniProt Q99ZW2). The experiment in a line: MST.
Chain of UniProt Q99ZW2 (Q99ZW2 whole entry): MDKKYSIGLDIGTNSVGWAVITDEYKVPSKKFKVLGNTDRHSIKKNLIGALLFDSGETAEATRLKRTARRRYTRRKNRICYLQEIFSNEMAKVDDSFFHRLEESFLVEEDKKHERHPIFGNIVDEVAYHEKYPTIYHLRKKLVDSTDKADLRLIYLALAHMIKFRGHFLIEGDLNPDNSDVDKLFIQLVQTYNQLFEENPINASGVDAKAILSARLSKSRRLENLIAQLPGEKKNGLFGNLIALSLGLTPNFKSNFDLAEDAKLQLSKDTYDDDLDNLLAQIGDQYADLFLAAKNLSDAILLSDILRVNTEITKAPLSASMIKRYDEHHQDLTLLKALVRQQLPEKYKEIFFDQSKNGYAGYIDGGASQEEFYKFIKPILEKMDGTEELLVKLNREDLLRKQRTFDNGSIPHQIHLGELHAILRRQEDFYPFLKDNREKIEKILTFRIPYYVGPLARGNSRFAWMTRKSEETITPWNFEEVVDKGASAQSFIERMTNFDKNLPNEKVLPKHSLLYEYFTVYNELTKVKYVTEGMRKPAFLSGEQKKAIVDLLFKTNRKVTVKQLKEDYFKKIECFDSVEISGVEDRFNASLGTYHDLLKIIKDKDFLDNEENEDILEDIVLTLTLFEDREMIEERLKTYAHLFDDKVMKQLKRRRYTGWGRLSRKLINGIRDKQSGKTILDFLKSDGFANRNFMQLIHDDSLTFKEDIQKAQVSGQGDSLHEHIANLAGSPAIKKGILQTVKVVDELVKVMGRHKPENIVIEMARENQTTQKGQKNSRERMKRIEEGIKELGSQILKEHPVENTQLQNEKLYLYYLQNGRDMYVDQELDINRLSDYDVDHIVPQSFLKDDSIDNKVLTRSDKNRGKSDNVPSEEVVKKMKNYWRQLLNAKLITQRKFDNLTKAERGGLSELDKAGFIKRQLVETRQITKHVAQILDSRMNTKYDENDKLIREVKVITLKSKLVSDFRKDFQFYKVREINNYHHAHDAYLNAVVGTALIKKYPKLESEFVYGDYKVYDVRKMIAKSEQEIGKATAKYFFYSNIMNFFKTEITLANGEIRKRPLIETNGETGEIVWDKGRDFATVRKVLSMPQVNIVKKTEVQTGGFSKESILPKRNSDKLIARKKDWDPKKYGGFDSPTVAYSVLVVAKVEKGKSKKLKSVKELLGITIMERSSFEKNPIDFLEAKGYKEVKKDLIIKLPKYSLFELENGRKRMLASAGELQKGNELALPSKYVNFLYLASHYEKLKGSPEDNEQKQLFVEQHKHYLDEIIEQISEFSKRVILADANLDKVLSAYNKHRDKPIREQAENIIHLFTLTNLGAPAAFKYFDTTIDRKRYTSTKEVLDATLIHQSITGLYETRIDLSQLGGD

For orientation: Kd means the free concentration of one partner at which half of the binding sites on the other are occupied at equilibrium, for simple one-to-one binding. On to “GGCCCAGACTGAGCACGTGAGTTTTAGAGCTAGAAATAGCAAGTTAAAATAAGGCTAGTCCGTTATCAACTTGAAAAAGTGGCACCGAGTCGGTGCTGGAGGAAGCAGGGCTTCCTTTCCTCTGCCATCACTTATCGTCGTCATCCTTGTAATCCGTGCTCAGTCTGTCTCTCTCTTGACGCGGTTCTATCTAGTTACGCGTTAAACCAACTAGAAATTTTTT [evopreQ1 epegRNA (guide) + HEK3 dsDNA target]”, for which the Kd is 10 nM.
The value for “GGCCCAGACTGAGCACGTGAGTTTTAGAGCTAGAAATAGCAAGTTAAAATAAGGCTAGTCCGTTATCAACTTGAAAAAGTGGCACCGAGTCGGTGCTGGAGGAAGCAGGGCTTCCTTTCCTCTGCCATCACTTATCGTCGTCATCCTTGTAATCCGTGCTCAGTCTGTTTTTT [unmodified pegRNA (guide) + HEK3 dsDNA target]” was 8.1 nM.
